The record followed here is paper PMC10929192, “Hypoxia-activated selectivity-improved anti-PKM2 antibody combined with prodrug TH-302 for potentiated targeting therapy in hepatocellular carcinoma” (International Journal of Biological Sciences, 2024).

The target of assay [1] is T1, human PKM2 Ag (M2 splice isoform of pyruvate kinase), purified (Homo sapiens, UniProt P14618).
T1 construct: M2 splice isoform of pyruvate kinase (PKM2), human; also called purified PKM2 antigen
Nature of the assay: SPR; human PKM2 Ag (20 µg/mL, sodium acetate buffer, pH 5) on a CM5 chip; serial dilutions of the Abs injected at 20 μL/min, 120 s binding, 300 s dissociation; 1:1 kinetic binding model; Biacore T200. Conditions: both partners purified.

Assay [2] has as its target T2, PKM2 Ag in HCC tissues (Homo sapiens (HCC patient tissue), UniProt P14618).
T2 construct: M2 splice isoform of pyruvate kinase (PKM2), endogenous in human HCC tissue; source: endogenous, surgical specimens from HCC patients (tissue sections)
Kind of assay: immunostaining of cells or tissue; IHC on sections of HCC patient specimens; primary Abs 0.1 mg/mL overnight at 4 °C; goat anti-human IgG-HRP. Conditions: one partner purified.

Assay [3] deals with T3, PKM2 Ag expressed in HCC cells (HepG2, Huh7) (Homo sapiens (HepG2, Huh7), UniProt P14618).
T3 construct: M2 splice isoform of pyruvate kinase (PKM2), endogenous in human HCC cell lines; living cells were incubated with the antibodies at 37 °C; the antibody is said to internalize; also called expressed PKM2 Ag; source: endogenous, HepG2 and Huh7 cells
Nature of the assay: flow cytometry on cells; normoxia-cultured HepG2 and Huh7 cells, EDTA-detached, Abs in serum-free medium 1 h at 37 °C; goat anti-human IgG(H+L)-RDM. The settings on record: one partner purified.

T1 sequence (P14618 whole entry, canonical isoform): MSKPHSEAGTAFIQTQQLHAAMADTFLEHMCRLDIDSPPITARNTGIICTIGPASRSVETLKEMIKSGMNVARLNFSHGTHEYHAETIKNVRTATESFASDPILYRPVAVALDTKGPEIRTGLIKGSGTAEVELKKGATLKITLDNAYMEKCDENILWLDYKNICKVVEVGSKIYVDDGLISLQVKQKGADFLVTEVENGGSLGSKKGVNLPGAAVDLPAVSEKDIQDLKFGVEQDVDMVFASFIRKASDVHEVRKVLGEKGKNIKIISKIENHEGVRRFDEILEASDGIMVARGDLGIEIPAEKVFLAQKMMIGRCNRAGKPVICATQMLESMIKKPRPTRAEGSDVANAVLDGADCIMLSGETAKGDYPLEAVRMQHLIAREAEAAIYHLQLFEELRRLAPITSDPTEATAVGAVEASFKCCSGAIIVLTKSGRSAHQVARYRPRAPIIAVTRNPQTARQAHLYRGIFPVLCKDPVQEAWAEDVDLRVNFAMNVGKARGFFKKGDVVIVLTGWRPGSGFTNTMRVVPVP
T2 sequence (P14618 whole entry, canonical isoform): as above
T3 sequence (P14618 whole entry, canonical isoform): as above

B1: human full-length H103 Ab (anti-PKM2 antibody, IgG1) (antibody, V domains shown)
VH: QVQLQESGPGLVRPSGTLSLICAVSGDSISSSIWWSWVRQSPGKGLEWIGYIYHNGNTYYNPSLESRVTISVDTSENQFSLKLSSVTAADTAVYYCARGYDSSGYYWTDDRYYFDYWGQGTLVTVSS
VL: NFMLTQPHSVSESPGKTVTISCTGSSGSIASNYVQWYQQRPGSAPTTVIYEDNQRPPGVPDRFSGSIDSSSNSASLTISALETEDEADYYCQSYDSRNIDVVFGGGTKVTVL
notes: the first five amino acids were replaced by those of germline IGHV4-4*02; constant region of human IgG1 (from the expression vector pcMV3-H103-H); light chain constant region from the vector pcMV3-H103-L; IgG1; codon optimised; also called parental H103 Ab; parent H103 Ab
With B1, the binding result in assay [1] and in assay [2] was “binds” each time.

B2: Na2S2O4-cleaved HAP103 Ab (act-HAP103) (antibody, V domains shown)
VH: B1 VH
VL: B1 VL
notes: as the VH of m1; constant region of human IgG1, as in m1; as the VL of m1; as the light chain constant region of m1; IgG1; also called act-HAP103 Ab; act-HAP Ab; source: HAP103 Ab incubated with Na2S2O4 in carbonate buffer pH 8.0 at RT for 2 h, ultrafiltration
Turning to B2, the binding result in assay [1], in assay [2] and in assay [3] was “binds” in each case.
